Assay results as given in IntAct's records for PubMed 18826941.

B1: "UDP-GlcNAc:betaGal beta-1,3-N-acetylglucosaminyltransferase 8" (Homo sapiens), Q7Z7M8 (parent)
chain: MRCPKCLLCLSALLTLLGLKVYIEWTSESRLSKAYPSPRGTPPSPTPANPEPTLPANLSTRLGQTIPLPFAYWNQQQWRLGSLPSGDSTETGGCQAWGAAAATEIPDFASYPKDLRRFLLSAACRSFPQWLPGGGGSQVSSCSDTDVPYLLLAVKSEPGRFAERQAVRETWGSPAPGIRLLFLLGSPVGEAGPDLDSLVAWESRRYSDLLLWDFLDVPFNQTLKDLLLLAWLGRHCPTVSFVLRAQDDAFVHTPALLAHLRALPPASARSLYLGEVFTQAMPLRKPGGPFYVPESFFEGGYPAYASGGGYVIAGRLAPWLLRAAARVAPFPFEDVYTGLCIRALGLVPQAHPGFLTAWPADRTADHCAFRNLLLVRPLGPQASIRLWKQLQDPRLQC
partner: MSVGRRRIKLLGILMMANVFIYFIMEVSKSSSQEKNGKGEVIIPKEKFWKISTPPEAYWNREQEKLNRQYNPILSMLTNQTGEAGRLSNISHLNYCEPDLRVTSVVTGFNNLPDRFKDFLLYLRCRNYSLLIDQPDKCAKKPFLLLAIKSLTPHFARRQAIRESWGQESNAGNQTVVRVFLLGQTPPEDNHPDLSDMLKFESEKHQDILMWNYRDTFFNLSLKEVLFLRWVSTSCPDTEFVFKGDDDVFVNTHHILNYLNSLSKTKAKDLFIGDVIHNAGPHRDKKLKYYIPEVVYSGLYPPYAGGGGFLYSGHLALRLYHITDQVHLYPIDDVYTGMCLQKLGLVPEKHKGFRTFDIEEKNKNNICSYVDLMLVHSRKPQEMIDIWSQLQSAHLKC
B2: N-acetyllactosaminide beta-1,3-N-acetylglucosaminyltransferase 2 (Homo sapiens), Q9NY97 (parent)
chain: B1 partner
partner: B1 chain

Variants of: B1
Settings: with B3GNT2, Q9NY97

effect of a mutation on the interaction | Variant
with no effect | Q246A

Variants of: B2
Settings: with B3GNT8, Q7Z7M8

effect of a mutation on the interaction | Variant
with no effect | D245A
